This passage reports Kd results from patent US20150183847A1.

The target in this experiment is interleukin-1 receptor (human (CHO-derived cells) or murine (EL4 cells); not stated which gave the tables) (UniProt P14778). Description: competition with 35S-IL-1Ra on IL-1 receptor cells, Kd=IC50/2.

The term Kd denotes the constant that tells how readily two partners part at equilibrium. High values mean weaker binding, low ones tighter binding. “wild-type human IL-1Ra (from UniProt P18510 26-177)” gave an equilibrium dissociation constant (Kd) of 0.15 to 0.4 nM.
